From PMC5714165 (Nucleic Acids Research, 2017) come the findings set out here.

In assay [1] the target is eIF2α-NTD_(S51D) (phosphomimetic N-terminal domain of eIF2α, aa 1–184) (human). The assay is described as follows: fluorescence polarisation.
In assay [2] the target is T1, eIF2Bβ (human, UniProt P49770 1-351).
T1 sequence: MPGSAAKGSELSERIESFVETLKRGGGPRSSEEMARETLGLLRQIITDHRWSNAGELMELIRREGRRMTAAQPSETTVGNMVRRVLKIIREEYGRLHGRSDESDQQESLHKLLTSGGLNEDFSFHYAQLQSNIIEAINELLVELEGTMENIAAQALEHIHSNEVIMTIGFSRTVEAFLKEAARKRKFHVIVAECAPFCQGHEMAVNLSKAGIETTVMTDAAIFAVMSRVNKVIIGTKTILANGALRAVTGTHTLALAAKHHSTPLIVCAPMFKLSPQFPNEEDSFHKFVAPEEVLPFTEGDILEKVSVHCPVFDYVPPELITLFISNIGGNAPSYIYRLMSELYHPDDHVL
The experiment in a line: SEC.

As to “eIF2Breg (eIF2B regulatory subcomplex of eIF2Bα, β and δ), reconstituted from individual subunits (from UniProt Q14232;P49770;Q9UI10)”, the fold higher affinity than for WT eIF2α-NTD in assay [1] is under 2 fold.

B1: eIF2Bα_(I301E/L305D) mutant (designated as eIF2Bα in the paper) (natural protein)
chain: MDDKELIEYFKSQMKEDPDMASAVAAIRTLLEFLKRDKGETIQGLRANLTSAIETLCGVDSSVAVSSGGELFLRFISLASLEYSDYSKCKKIMIERGELFLRRISLSRNKIADLCHTFIKDGATILTHAYSRVVLRVLEAAVAAKKRFSVYVTESQPDLSGKKMAKALCHLNVPVTVVLDAAVGYIMEKADLVIVGAEGVVENGGIINKIGTNQMAVCAKAQNKPFYVVAESFKFVRLFPLNQQDVPDKFKYKADTLKVAQTGQDLKEEHPWVDYTAPSLITLLFTDLGVLTPSAVSDELEKLYD
Regarding B1, the binding result in assay [2] was “binds”.
